# Measurements as given in IntAct's records for PubMed 18423203.
# B1: Peripheral plasma membrane protein CASK (Homo sapiens), O14936 (parent)
# chain: MADDDVLFEDVYELCEVIGKGPFSVVRRCINRETGQQFAVKIVDVAKFTSSPGLSTEDLKREASICHMLKHPHIVELLETYSSDGMLYMVFEFMDGADLCFEIVKRADAGFVYSEAVASHYMRQILEALRYCHDNNIIHRDVKPHCVLLASKENSAPVKLGGFGVAIQLGESGLVAGGRVGTPHFMAPEVVKREPYGKPVDVWGCGVILFILLSGCLPFYGTKERLFEGIIKGKYKMNPRQWSHISESAKDLVRRMLMLDPAERITVYEALNHPWLKERDRYAYKIHLPETVEQLRKFNARRKLKGAVLAAVSSHKFNSFYGDPPEELPDFSEDPTSSGLLAAERAVSQVLDSLEEIHALTDCSEKDLDFLHSVFQDQHLHTLLDLYDKINTKSSPQIRNPPSDAVQRAKEVLEEISCYPENNDAKELKRILTQPHFMALLQTHDVVAHEVYSDEALRVTPPPTSPYLNGDSPESANGDMDMENVTRVRLVQFQKNTDEPMGITLKMNELNHCIVARIMHGGMIHRQGTLHVGDEIREINGISVANQTVEQLQKMLREMRGSITFKIVPSYRTQSSSCERDSPSTSRQSPANGHSSTNNSVSDLPSTTQPKGRQIYVRAQFEYDPAKDDLIPCKEAGIRFRVGDIIQIISKDDHNWWQGKLENSKNGTAGLIPSPELQEWRVACIAMEKTKQEQQASCTWFGKKKKQYKDKYLAKHNAVFDQLDLVTYEEVVKLPAFKRKTLVLLGAHGVGRRHIKNTLITKHPDRFAYPIPHTTRPPKKDEENGKNYYFVSHDQMMQDISNNEYLEYGSHEDAMYGTKLETIRKIHEQGLIAILDVEPQALKVLRTAEFAPFVVFIAAPTITPGLNEDESLQRLQKESDILQRTYAHYFDLTIINNEIDETIRHLEEAVELVCTAPQWVPVSWVY
# Variants of: B1
# Details: with nrx1b_rat Nrxn1, Q63373
# Chain of nrx1b_rat Nrxn1, Q63373 (Q63373 whole entry): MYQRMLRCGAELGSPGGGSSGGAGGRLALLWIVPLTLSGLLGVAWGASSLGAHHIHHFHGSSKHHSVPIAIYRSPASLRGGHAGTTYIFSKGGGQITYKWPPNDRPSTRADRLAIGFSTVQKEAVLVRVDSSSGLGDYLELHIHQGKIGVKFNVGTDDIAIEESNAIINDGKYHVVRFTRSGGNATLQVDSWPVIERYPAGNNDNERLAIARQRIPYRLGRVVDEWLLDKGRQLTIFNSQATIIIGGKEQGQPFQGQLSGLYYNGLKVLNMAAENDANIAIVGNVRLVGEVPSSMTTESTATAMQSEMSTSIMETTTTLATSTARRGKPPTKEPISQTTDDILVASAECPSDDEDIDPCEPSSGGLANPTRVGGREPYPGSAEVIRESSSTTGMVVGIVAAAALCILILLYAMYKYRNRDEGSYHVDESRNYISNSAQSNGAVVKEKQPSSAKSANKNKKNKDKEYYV
row,effect of a mutation on the interaction,Variant
1,decreasing interaction,S24D;V26L
